Results published in the nanobody polyreactivity screen of Harvey et al. (2022).

assay: yeast display, Sf9 membrane polyspecificity reagent, FACS + sequencing; frameworks hold sequencing errors
Procedure, shortened: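 In a synthetic yeast display library (Saccharomyces cerevisiae BJ5465), nanobody expression was induced with galactose for 36–48 hours. FACS gates were set low and high (top ~1%) using anti-HA fluorescence for expression and streptavidin fluorescence for binding of the Sf9 membrane reagent. Each polyreactivity label is drawn from the gate of origin.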

Sequence	polyreactivity (PSR sort gate)
QVQLVESGGGLVQAGGSLRLSCAASGRTFVYYAMGWYRQAPGKERELVARISSSGGRTSYADSVKGRFTISRDNAKNTVYLQMNRLKPEDTAVYYCNAGRYRAGGWGVGEGYWGQGTQVTVSS	high polyreactivity
QVQLVESGGGLVQAGGSLRLSCAASGRTFVYYDMGWYRQAPGKERELVASISSGDSTNYADSVKGRFTISRDNAKNTVYLQMNSLKPEDTAVYDCAARGYLRGEQLYVFIRYDYWGQGTQVTVSS	low polyreactivity
QVQLVESGGGLVQAGGSLRLSCAASGRTFVYYTMGWYRQAPGKERELVAGIRRRGGRTYYADSVKGRFTISRDNAKNTVYLQMNSLKPEDTAVYYCAAQTRYQGYQEYYYWGQGTQVTVSS	high polyreactivity
QVQLVESGGGLVQAGGSLRLSCAASGRTFWFNHMGSYRQAPGKERELVAAITWNGGSTYYADSVKGRFTISRDNAKNTVYLQMNSLKPEATAVYYCARTSYARYRNGWTYDHWGQGTQVTVSS	low polyreactivity
QVQLVESGGGLVQAGGSLRLSCAASGRTFWGYGMGWYRQAPGKERELVATISSGGSTYYADSVKGRFTISRDNAKNTVYLQMNSLKPEDTAVYYCAARPPRTYWRYQSDYWGQGTQVTVSS	high polyreactivity
QVQLVESGGGLVQAGGSLRLSCAASGRTFWKYAMGWYRHAPGKERELVAAITDDDSTDYADSVKGRFTISRDNAKNTVYLQMNSLKPEDTAVYYCNADSSRYYRALEYWGQGTQVTVSS	low polyreactivity
QVQLVESGGGLVQAGGSLRLSCAASGRTFWKYVMGWYRQAPGKERELVAVISRPAGSTYYADSVKGRFTISRDNAKNTVYLQMNSLKPEDTAVYYCAKRPKNKPVLGDYDQWGQGTQVTVSS	low polyreactivity
QVQLVESGGGLVQAGGSLRLSCAASGRTFWNAMGWYRQEPGKERELVATITSGGITNYADSVKGRFTISRDNAKNTVYLQMNSLKPEDTAVYYCAARPYTWRNFRPSDYWGQGTQVTVSS	high polyreactivity
QVQLVESGGGLVQAGGSLRLSCAASGRTFWNYAKGWYRQAPGNERELVAVIRFSDGSTYYADSVKGRFTISRDNAKNTVYLQMNSLKPEDTAVYYCAAKGPRRWGSGFDYWGQGTQVTVSS	low polyreactivity
QVQLVESGGGLVQAGGSLRLSCAASGRTFWNYAMGWYRQAPGKERELVAVIRFSDVSTYYADSVKGRFTISRDNAKNTVYLQMNSLKPEDTAVYYCAAKGPRRWGSGFDYWGLGTQVTVSS	low polyreactivity
QVQLVESGGGLVQAGGSLRLSCAASGRTFWPYAMGWYRQAPGKERELVAAISTSGGSTYYADSVKGRFTISRDNAKNTVYLQMNSLKPEDTAVYYCAAYSTLTPAYEYWGQGTQVTVSS	high polyreactivity
QVQLVESGGGLVQAGGSLRLSCAASGRTFWRNAMGWYRQAPGKERELVAAINSGGRTYYADSVKGRFTISRDNAKNTVYLQMNSLKPEDTAVYYCAVYVHRFLDGRVRSYRGDYWGQGTQVTVSW	high polyreactivity
QVQLVESGGGLVQAGGSLRLSCAASGRTFWRNAMGWYRQAPGKERELVAAISSSGDRTYYADSVKGRFTISRDNAKNTVYLQMNSLKPEDTAVYYCAARTFWGAYDYWGQGTQVTVSS	high polyreactivity
QVQLVESGGGLVQAGGSLRLSCAASGRTFWSNAMGWYRPAPGKERELVAAITWSGGSTSYADSVKGRFTISRDNAKNTVYLQMNSLKPEDTAVYYCAAGKGVELAKLDYWGQGTQVTVSS	low polyreactivity
QVQLVESGGGLVQAGGSLRLSCAASGRTFWSNAMGWYRQAPGKERELVAAISTGAGSTYYADSVKGRFTISRDNAKNTVYLQMNSLKPEDTAVYYCAAVYNGALYNYYYWGEGTQVTVSS	high polyreactivity
QVQLVESGGGLVQAGGSLRLSCAASGRTFWSYAMGWYRQAPGKEREFVAAISRRGGITYYADSVKGRFTLSRDNAKNTVYLQMNSLKPEDTAVYYCAKGAQSYYGGQVKYDYWGQGTQVTVSS	high polyreactivity
